Data reported in patent publication US20220348631A1.
“And” between values parts separate entries of the source, which are not always exact repeats. Identical values can stand only once.

Assays:
Assay in all cases: cell-based or functional assay
[1] = biological target: carcinoembryonic antigen (CEA) on LoVo, LS174T or H508 tumor cells (UniProt P06731)
[2] = biological target: PD-L1 on LoVo / LoVo.OKT3.GFP cells (UniProt Q9NZQ7)
[3] = biological target: Human folate receptor alpha (FolR) on cells (human) (UniProt P15328)
UniProt P15328, sequence (P15328 25-234): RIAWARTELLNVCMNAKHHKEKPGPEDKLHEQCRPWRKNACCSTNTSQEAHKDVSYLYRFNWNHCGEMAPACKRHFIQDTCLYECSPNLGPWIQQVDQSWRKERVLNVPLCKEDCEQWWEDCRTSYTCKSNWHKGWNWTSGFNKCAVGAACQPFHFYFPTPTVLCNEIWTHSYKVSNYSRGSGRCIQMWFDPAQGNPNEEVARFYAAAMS

UniProt P06731, sequence (P06731 35-702 limits assumed): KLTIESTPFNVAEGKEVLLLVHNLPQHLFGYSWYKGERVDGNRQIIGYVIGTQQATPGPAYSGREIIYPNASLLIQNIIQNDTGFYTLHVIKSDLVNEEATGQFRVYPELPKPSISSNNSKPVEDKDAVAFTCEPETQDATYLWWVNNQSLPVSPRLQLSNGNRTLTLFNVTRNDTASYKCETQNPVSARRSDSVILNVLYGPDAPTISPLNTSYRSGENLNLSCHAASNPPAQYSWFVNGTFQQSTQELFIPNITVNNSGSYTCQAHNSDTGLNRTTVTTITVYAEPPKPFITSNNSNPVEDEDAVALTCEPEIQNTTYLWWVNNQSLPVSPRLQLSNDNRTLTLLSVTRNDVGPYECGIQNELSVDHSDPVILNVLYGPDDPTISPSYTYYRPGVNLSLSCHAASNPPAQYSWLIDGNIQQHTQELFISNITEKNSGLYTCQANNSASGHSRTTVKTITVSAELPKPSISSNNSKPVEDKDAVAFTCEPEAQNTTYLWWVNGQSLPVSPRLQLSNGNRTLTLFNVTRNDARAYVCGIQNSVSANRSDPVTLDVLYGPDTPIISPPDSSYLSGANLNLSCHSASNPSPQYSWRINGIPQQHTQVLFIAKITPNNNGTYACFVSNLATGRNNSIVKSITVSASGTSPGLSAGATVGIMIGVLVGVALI
UniProt Q9NZQ7, sequence (Q9NZQ7 19-290 limits assumed): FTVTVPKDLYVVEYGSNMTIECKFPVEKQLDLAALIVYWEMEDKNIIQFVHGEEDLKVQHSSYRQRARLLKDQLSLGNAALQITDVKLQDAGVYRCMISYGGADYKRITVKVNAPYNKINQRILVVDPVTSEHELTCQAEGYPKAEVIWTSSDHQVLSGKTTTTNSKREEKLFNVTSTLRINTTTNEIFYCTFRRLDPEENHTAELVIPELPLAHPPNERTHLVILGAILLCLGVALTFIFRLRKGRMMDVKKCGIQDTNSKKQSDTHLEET

## CTP198 OSM_MFE23_spCD28_CD28_CD40 (P227A) (receptor)
[1]
  IFNγ (ELISA) after 24 h with LoVo-OKT3: > 30 ng/mL
  IL-2 (ELISA) after 24 h with LoVo-OKT3: 4000 pg/mL

## CTP201 OSM_MFE23_spCD28_CD28 (PYAPP-AYAA)_CD40 (receptor)
[1]
  IFNγ (ELISA), coculture with LoVo-OKT3: 1000 pg/mL
  IL-2 (ELISA), coculture with LoVo-OKT3: 2500 pg/mL

## CTP195 OSM_MFE23_spCD28_CD28_CD40 (SVQE-AVQA) (receptor)
[1]
  IFNγ (ELISA) after 24 h with LoVo-OKT3: > 30 ng/mL
  IL-2 (ELISA) after 24 h with LoVo-OKT3: 4000 pg/mL

## CTP196 OSM_MFE23_spCD28_CD28_CD40 (PVQET-AVAEA) (receptor)
[1]
  IFNγ (ELISA) after 24 h with LoVo-OKT3: 10 ng/mL

## CTP200 OSM_MFE23_spCD28_CD28_CD40_CD40_CD40 (receptor)
[1]
  IFNγ (ELISA) after 24 h with LoVo-OKT3: > 30 ng/mL

## CTP189 PD1_PD1_sCD28TM_CD28_CD40 (monomeric) (receptor)
[2]
  IL-2 secretion (ELISA), 24 h coculture with LoVo-OKT3: < 1000 pg/mL

## MOV19.CD28 CoStAR (from UniProt P10747 19-220) (receptor)
[3]
  enhancement of Bcl-XL induction in the presence of OvCAR-OKT3: 20%
  enhancement of IL-2 induction in the presence of OvCAR-OKT3: 20%
  enhancement of TNFα production in the presence of OvCAR-OKT3: 20 to 30%
  mean fold expansion of T cells, 21 days with OvCAR-OKT3: 187 fold

## CTP194 OSM_MFE23_spCD28_CD28_CD40 (receptor)
[1]
  IFNγ (ELISA) after 24 h with LoVo-OKT3: > 30 ng/mL
  IFNγ (ELISA), coculture with LoVo-OKT3: 1000 pg/mL
  IL-2 (ELISA) after 24 h with LoVo-OKT3: 4000 pg/mL
  IL-2 (ELISA), coculture with LoVo-OKT3: 4000 pg/mL
  IL-2 secretion (ELISA), 24 h coculture with LoVo-OKT3: 4000 pg/mL
  IL-2 secretion (ELISA), coculture with LoVo-OKT3: 29 ng/mL
  T-cell expansion over 18 days with LoVo-OKT3 and IL-2: > 60 fold
  fold expansion after two rounds of stimulation with LoVo-OKT3: 10 fold
  fold expansion on serial stimulation with LoVo-OKT3: 12 fold
  fold expansion with LoVo-OKT3, after restimulation (day 14-15): > 10 fold
  fold expansion with LoVo-OKT3, first time point (day 6-8): 4 fold

## CTP188 PD1_PD1_sCD28TM_CD28_CD40 (dimeric) (receptor)
[2]
  IL-2 secretion (ELISA), 24 h coculture with LoVo-OKT3: < 1000 pg/mL

## MFE23 CD28(IEV) truncated CoStAR (receptor)
[1]
  IL-2 secretion (ELISA), coculture with LoVo-OKT3: 4.6 ng/mL

## CTP197 OSM_MFE23_spCD28_CD28_CD40 (PQEINF-AQAINF) (receptor)
[1]
  IFNγ (ELISA) after 24 h with LoVo-OKT3: > 30 ng/mL

## CTP202 OSM_MFE23_spCD28_CD28 (YMNM-FMNM)_CD40 (receptor)
[1]
  IL-2 (ELISA), coculture with LoVo-OKT3: 2500 pg/mL

## MOV19.CD28.CD40 CoStAR (OSM_MOV19_spCD28_CD28_CD40) (receptor)
[3]
  CD137 expression: 50%
  CD137 expression in CoStAR+ TIL, coculture with FolR high expressing tumor digest: 50%
  CD137 expression in CoStAR+ TIL, coculture with FolR low expressing tumor digest: > 20%
  IL-2 production: 5%
  TNFα production: 15%
  enhancement of Bcl-XL induction in the presence of OvCAR-OKT3: 35%
  enhancement of IL-2 induction in the presence of OvCAR-OKT3: 30 to 50%
  enhancement of TNFα production in the presence of OvCAR-OKT3: 25% and 50%
  mean fold expansion of T cells, 21 days with OvCAR-OKT3: 1300 fold
